Substrate: C[C@@H](O)[C@H](N)C(=O)O
Assay: purified protein
Conditions: natural substrate

B1: NmLTA (Neptunomonas marina) (protein)
chain: MASNDSCIEDTVSFTSDNIAAAAPEIVQAMAQACQGNAQPYGGDALTQNVEAQLKAIFECDLQLFLVPTGSAANAISLAALTPPWGAILCHQESHINNDECGAPEFFTAGAKLIAVAGTHGKLDPQALTQAARNKRGDVHSVEPTTVSITQATEVGSIYALDELNEIGQICRNEGLKLHMDGARFANALSALGCTPAEMTWKAGVDVLSFGATKNGSLCAEAIILFDKSYAQEIAFRRKRGGHLLSKMRFLSAQMHAYLADDLWLTNARHANLMAARLAAGLSALSRVSLIAPTESNIIFCRMPTKMIAALQQQGFQFYHDRWGDGIVRLVTSFATTQAQVDTFIAAAAQLNQNTD
With B1 the Km was 12.3 mM and the kcat was 805.7 s⁻¹.

From doi:10.1101/2023.04.09.536162v1
